# Measurements reported in IntAct's records for PubMed 17693255.
# B1: Hamartin (Homo sapiens), Q92574 (parent)
# chain: MAQQANVGELLAMLDSPMLGVRDDVTAVFKENLNSDRGPMLVNTLVDYYLETSSQPALHILTTLQEPHDKHLLDRINEYVGKAATRLSILSLLGHVIRLQPSWKHKLSQAPLLPSLLKCLKMDTDVVVLTTGVLVLITMLPMIPQSGKQHLLDFFDIFGRLSSWCLKKPGHVAEVYLVHLHASVYALFHRLYGMYPCNFVSFLRSHYSMKENLETFEEVVKPMMEHVRIHPELVTGSKDHELDPRRWKRLETHDVVIECAKISLDPTEASYEDGYSVSHQISARFPHRSADVTTSPYADTQNSYGCATSTPYSTSRLMLLNMPGQLPQTLSSPSTRLITEPPQATLWSPSMVCGMTTPPTSPGNVPPDLSHPYSKVFGTTAGGKGTPLGTPATSPPPAPLCHSDDYVHISLPQATVTPPRKEERMDSARPCLHRQHHLLNDRGSEEPPGSKGSVTLSDLPGFLGDLASEEDSIEKDKEEAAISRELSEITTAEAEPVVPRGGFDSPFYRDSLPGSQRKTHSAASSSQGASVNPEPLHSSLDKLGPDTPKQAFTPIDLPCGSADESPAGDRECQTSLETSIFTPSPCKIPPPTRVGFGSGQPPPYDHLFEVALPKTAHHFVIRKTEELLKKAKGNTEEDGVPSTSPMEVLDRLIQQGADAHSKELNKLPLPSKSVDWTHFGGSPPSDEIRTLRDQLLLLHNQLLYERFKRQQHALRNRRLLRKVIKAAALEEHNAAMKDQLKLQEKDIQMWKVSLQKEQARYNQLQEQRDTMVTKLHSQIRQLQHDREEFYNQSQELQTKLEDCRNMIAELRIELKKANNKVCHTELLLSQVSQKLSNSESVQQQMEFLNRQLLVLGEVNELYLEQLQNKHSDTTKEVEMMKAAYRKELEKNRSHVLQQTQRLDTSQKRILELESHLAKKDHLLLEQKKYLEDVKLQARGQLQAAESRYEAQKRITQVFELEILDLYGRLEKDGLLKKLEEEKAEAAEAAEERLDCCNDGCSDSMVGHNEEASGHNGETKTPRPSSARGSSGSRGGGGSSSSSSELSTPEKPPHQRAGPFSSRWETTMGEASASIPTTVGSLPSSKSFLGMKARELFRNKSESQCDEDGMTSSLSESLKTELGKDLGVEAKIPLNLDGPHPSPPTPDSVGQLHIMDYNETHHEHS
# Variants of: B1
# Settings: with tsc2_human TSC2, P49815
# Chain of tsc2_human TSC2, P49815 (P49815 whole entry): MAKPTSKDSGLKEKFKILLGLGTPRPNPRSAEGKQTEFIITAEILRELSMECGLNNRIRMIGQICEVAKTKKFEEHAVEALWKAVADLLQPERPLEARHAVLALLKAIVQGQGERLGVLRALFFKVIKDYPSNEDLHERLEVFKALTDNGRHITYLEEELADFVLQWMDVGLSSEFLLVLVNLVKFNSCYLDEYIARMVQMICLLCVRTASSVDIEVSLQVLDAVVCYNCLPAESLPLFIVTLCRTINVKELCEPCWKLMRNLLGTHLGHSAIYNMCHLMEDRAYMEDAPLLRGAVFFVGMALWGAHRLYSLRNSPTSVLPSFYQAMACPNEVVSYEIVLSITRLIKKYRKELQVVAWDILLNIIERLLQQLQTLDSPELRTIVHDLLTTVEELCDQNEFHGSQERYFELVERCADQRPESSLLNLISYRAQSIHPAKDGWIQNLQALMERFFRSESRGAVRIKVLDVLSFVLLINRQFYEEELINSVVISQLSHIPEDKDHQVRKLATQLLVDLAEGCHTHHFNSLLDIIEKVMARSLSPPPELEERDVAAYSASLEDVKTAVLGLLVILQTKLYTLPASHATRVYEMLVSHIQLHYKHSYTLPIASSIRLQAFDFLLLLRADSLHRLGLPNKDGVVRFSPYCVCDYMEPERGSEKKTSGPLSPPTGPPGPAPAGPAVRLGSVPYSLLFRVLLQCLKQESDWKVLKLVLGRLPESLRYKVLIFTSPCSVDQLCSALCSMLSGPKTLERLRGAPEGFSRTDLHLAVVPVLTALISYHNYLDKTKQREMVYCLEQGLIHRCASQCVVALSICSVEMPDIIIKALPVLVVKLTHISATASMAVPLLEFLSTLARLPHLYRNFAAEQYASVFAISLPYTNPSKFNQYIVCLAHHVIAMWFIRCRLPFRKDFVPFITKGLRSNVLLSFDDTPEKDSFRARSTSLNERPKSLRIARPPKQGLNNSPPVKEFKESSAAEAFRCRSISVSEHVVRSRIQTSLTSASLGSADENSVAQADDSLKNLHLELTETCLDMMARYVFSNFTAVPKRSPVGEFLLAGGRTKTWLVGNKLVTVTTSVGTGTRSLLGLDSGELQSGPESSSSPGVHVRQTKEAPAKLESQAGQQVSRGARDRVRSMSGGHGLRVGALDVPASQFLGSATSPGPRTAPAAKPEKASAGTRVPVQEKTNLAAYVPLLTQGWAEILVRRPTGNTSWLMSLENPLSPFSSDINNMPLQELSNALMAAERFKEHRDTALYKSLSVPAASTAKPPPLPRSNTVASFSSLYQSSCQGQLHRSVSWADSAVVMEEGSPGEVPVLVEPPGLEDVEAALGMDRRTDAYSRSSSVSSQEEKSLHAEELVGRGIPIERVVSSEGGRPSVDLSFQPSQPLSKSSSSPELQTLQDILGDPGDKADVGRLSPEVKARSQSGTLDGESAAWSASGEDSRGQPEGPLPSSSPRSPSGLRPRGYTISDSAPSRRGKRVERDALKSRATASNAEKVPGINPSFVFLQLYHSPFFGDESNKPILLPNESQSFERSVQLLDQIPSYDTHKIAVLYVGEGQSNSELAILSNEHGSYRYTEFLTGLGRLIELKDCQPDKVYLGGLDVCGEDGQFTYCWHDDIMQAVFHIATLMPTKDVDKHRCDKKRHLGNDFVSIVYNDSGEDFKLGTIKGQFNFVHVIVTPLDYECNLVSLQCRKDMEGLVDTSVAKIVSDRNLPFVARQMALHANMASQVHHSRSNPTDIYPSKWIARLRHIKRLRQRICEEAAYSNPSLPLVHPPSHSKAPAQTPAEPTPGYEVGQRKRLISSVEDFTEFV
row,effect of a mutation on the interaction,Variant
1,decreasing interaction,S487D;S511D
